Data on eleven molecules can be found in patent publication US20110318353A1 (Janssen / Centocor, published 2011).

Assay [1] addresses T1, human IL-25 (human, UniProt Q9H293 33-177).
T1 sequence: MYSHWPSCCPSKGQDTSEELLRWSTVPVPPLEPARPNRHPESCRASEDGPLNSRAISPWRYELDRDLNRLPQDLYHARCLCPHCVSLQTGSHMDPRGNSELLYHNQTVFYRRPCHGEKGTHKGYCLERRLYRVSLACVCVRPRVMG
The experiment in a line: Receptor inhibition (column sub-head 'Panel A/ B'): bead-based ECLIA, inhibition of IL-25 binding to the IL-25 receptor. The source says: (§1) The Fabs were converted to mAbs as follows. A combinatorial library of 5 different light chains and 5 different heavy chains (including the huDDG91 light and heavy chains) was designed. The light and heavy chains used in the library differed from one another in the light chain CDR1 and CDR3 amino acid sequences and the heavy chain CDR 3 sequence. Using these light and heavy chains, a total of 25 mAbs (IgG1) were constructed, expressed in HEK293 cells at small scale and purified. Each of the mAbs was tested for IL-25 binding affinity, cellular inhibition, and receptor inhibition as follows: [0149] IL-25 binding affinity was determined using standard IL-25 ELISA and Biacore binding assays. […] Cellular inhibition was assessed using a standard TK-10 human renal carcinoma cell-based assay (IL-25 responsive; IL-25 and IL-8 readout; capable of discerning difference between soluble IL-25R and parental mAb) and a CD4+ T cell-based assay. […] Receptor inhibition was assessed using a modified bead-based electrochemiluminescence immunoassay (ECLIA). Candidates causing a greater than 3-fold decrease in IC₅₀ of IL-25 binding to receptor relative to parental huDDG91 antibody at a 10 nM mAb concentration were selected.

The target in assay [2] is T1, human IL-25. Kind of assay: Biacore, 7200 sec dissociation.
Text: as §1

Assay [3] has as its target T1, human IL-25.
In assay [4] the target is T1, human IL-25. Kind of assay: cell-based or functional assay.
In another assay the target is T2, cynomolgus monkey IL-25 (cynomolgus monkey, UniProt G7P9V9 33-176).
T2 construct: also called cynoIL-25; cyno IL-25
T2 sequence: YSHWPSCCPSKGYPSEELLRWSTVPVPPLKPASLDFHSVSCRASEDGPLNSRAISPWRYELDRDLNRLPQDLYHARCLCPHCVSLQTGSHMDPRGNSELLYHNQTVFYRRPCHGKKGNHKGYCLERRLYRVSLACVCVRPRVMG
The experiment in a line: species cross-reactivity criterion; method not stated.

Assay [5] addresses T1, human IL-25. The experiment in a line: receptor inhibition: IL-25 binding to receptor, bead-based ECLIA.
In assay [6] the target is T1, human IL-25. Kind of assay: Biacore, 7200 sec dissociation; second R71V G1 row, printed in italics = number from a different data set.
Assay [7] deals with T1, human IL-25. Kind of assay: Receptor inhibition (column sub-head 'Panel A/ B'): bead-based ECLIA, inhibition of IL-25 binding to the IL-25 receptor; upper end of the range.
Text: as §1

The target of assay [8] is T1, human IL-25. Kind of assay: Receptor inhibition (column sub-head 'Panel A/ B'): bead-based ECLIA, inhibition of IL-25 binding to the IL-25 receptor; lower end of the range.
Text: as §1

The target of assay [9] is T1, human IL-25. Kind of assay: Biacore, 7200 sec dissociation; first R71V G1 row.
Text: as §1

The target of assay [10] is T1, human IL-25. Kind of assay: Biacore, 7200 sec dissociation; printed in italics = number from a different data set.

Like-named read-outs stand apart in the source and are kept apart here.

For the molecule IL-17BR (receptor), in the assay with human IL-25 [1], the IC50 turned out to be 0.063 nM. The molecule further yielded a dissociation constant Kd with human IL-25 [2] of 0.017 nM. Further, in the assay with human IL-25 [3], the Cellular inhibition, fold change came to 1 fold change.

B1: M6 antibody (antibody, human IgG1, kappa, V domains shown)
VH: EVQLVESGAEVKKPGASVKVSCKASGYSFSGYTMNWVRQAPGQRLEWMGLINPYNGGTSYNQNFKGRVTLTVDTSASTAYLELNSLRSEDTGVYYCAREDYDGYLYFAMDYWGQGTLVTVSS
VL: DIQMTQSPSSLSASVGDRVTITCSASQGISNYLNWYQQKPGKVPKLLIYYTSSLHSGVPSRFSGSGSGTDFTLTISSLQPEDVATYYCQQYLAFPYTFGQGTKLEIKR
notes: Humanized IgG1 mAb with kappa light chain, a variant of huDDG91 with three substitutions in light chain CDR3
On to B1, for which the IC50 with human IL-25 [1] is 0.012 nM. Besides, in the assay with human IL-25 [4], the “Cellular inhibition, fold change” value stood at 4 fold change. Binding in the assay with human IL-25 [2] was put at a Kd of 0.053 nM. The “affinity relative to that for human IL-25” value with cynomolgus monkey IL-25 was at most 5 fold. The “fold decrease in IC50 compared to huDDG91” value in the assay with human IL-25 [5] is above 3 fold.

B2: huDDG91 antibody (antibody, V domains shown)
VH: EVQLVESGAEVKKPGASVKVSCKASGYSFSGYTMNWVRQAPGQRLEWMGLINPYNGGTSYNQNFKGRVTLTVDTSASTAYLELNSLRSEDTGVYYCAREDYDGYLYFAMDYWGQGTLVTVS
VL: DIQMTQSPSSLSASVGDRVTITCSASQGISNYLNWYQQKPGKVPKLLIYYTSSLHSGVPSRFSGSGSGTDFTLTISSLQPEDVATYYCQQYSKLPYTFGQGTKLEIK
notes: Humanized (CDR-grafted) version of murine 2C3; also called RH2.5_R71V; M9
On to B2, for which the Kd in the assay with human IL-25 [6] came to 0.136 nM; with human IL-25 [9] it was 0.194 nM. Besides, the IC50 was at most 0.0643 nM in the assay with human IL-25 [7] and at least 0.0452 nM with human IL-25 [8].

B3: I25M28 (antibody, V domains shown)
VH: EVQLVESGAEVKKPGASVKVSCKASGYSFSGYTMNWVRQAPGQRLEWMGLINPYNGGTSYNQNFKGRVTLTVDTSASTAYLELNSLRSEDTGVYYCAREDFDSWTYFAMDYWGQGTLVTVS
VL: DIQMTQSPSSLSASVGDRVTITCSASQGISNYLNWYQQKPGKVPKLLIYYTSSLHSGVPSRFSGSGSGTDFTLTISSLQPEDVATYYCQQYLAFPYTFGQGTKLEIK
notes: One of the 9 candidate IgG1 mAbs of the combinatorial library based on huDDG91
In the case of B3, the IC50 with human IL-25 [1] came to 0.014 nM. Besides, the “Cellular inhibition, fold change” value in the assay with human IL-25 [4] turned out to be 16 fold change. The molecule further gave a Kd in the assay with human IL-25 [2] of 0.019 nM.

B4: I25M31 (antibody, V domains shown)
VH: EVQLVESGAEVKKPGASVKVSCKASGYSFSGYTMNWVRQAPGQRLEWMGLINPYNGGTSYNQNFKGRVTLTVDTSASTAYLELNSLRSEDTGVYYCAREDFDSWTYFAMDYWGQGTLVTVS
VL: DIQMTQSPSSLSASVGDRVTITCSASQGISNYLNWYQQKPGKVPKLLIYYTSSLHSGVPSRFSGSGSGTDFTLTISSLQPEDVATYYCQQYSKLPYTFGQGTKLEIK
notes: as for B3
Molecule B4 had an IC50 with human IL-25 [1] of 0.018 nM. The “Cellular inhibition, fold change” value with human IL-25 [4] came out at 12 fold change. Also, the Kd in the assay with human IL-25 [2] was determined as 0.04 nM.

B5: I25M30 (antibody, V domains shown)
VH: EVQLVESGAEVKKPGASVKVSCKASGYSFSGYTMNWVRQAPGQRLEWMGLINPYNGGTSYNQNFKGRVTLTVDTSASTAYLELNSLRSEDTGVYYCAREDFDSWTYFAMDYWGQGTLVTVS
VL: DIQMTQSPSSLSASVGDRVTITCSASQGIHWNLNWYQQKPGKVPKLLIYYTSSLHSGVPSRFSGSGSGTDFTLTISSLQPEDVATYYCQQFNSFPYTFGQGTKLEIK
notes: as for B3
B5: the IC50 in the assay with human IL-25 [1] came to 0.02 nM. The “Cellular inhibition, fold change” value in the assay with human IL-25 [4] turned out to be 3 fold change. In the assay with human IL-25 [2], this molecule yielded a Kd of 0.044 nM.

B6: I25M32 (antibody, V domains shown)
VH: EVQLVESGAEVKKPGASVKVSCKASGYSFSGYTMNWVRQAPGQRLEWMGLINPYNGGTSYNQNFKGRVTLTVDTSASTAYLELNSLRSEDTGVYYCAREDYDSWTFFAMDYWGQGTLVTVS
VL: DIQMTQSPSSLSASVGDRVTITCSASQGINEYLNWYQQKPGKVPKLLIYYTSSLHSGVPSRFSGSGSGTDFTLTISSLQPEDVATYYCQQYINFPYTFGQGTKLEIK
notes: as for B3
In turn, B6 showed an IC50 in the assay with human IL-25 [1] of 0.011 nM. Besides, in the assay with human IL-25 [4], the “Cellular inhibition, fold change” value amounted to 4 fold change. The Kd with human IL-25 [2] amounted to 0.087 nM.

B7: I25M10 (antibody, V domains shown)
VH: EVQLVESGAEVKKPGASVKVSCKASGYSFSGYTMNWVRQAPGQRLEWMGLINPYNGGTSYNQNFKGRVTLTVDTSASTAYLELNSLRSEDTGVYYCAREDFDSWTFFAMDYWGQGTLVTVS
VL: DIQMTQSPSSLSASVGDRVTITCSASQGISNYLNWYQQKPGKVPKLLIYYTSSLHSGVPSRFSGSGSGTDFTLTISSLQPEDVATYYCQQYLAFPYTFGQGTKLEIK
notes: as for B3
In the assay with human IL-25 [1], B7 returned an IC50 of 0.014 nM. Also, in the assay with human IL-25 [4], the “Cellular inhibition, fold change” value stood at 5 fold change. In addition, binding in the assay with human IL-25 [2] was characterised by a dissociation constant (Kd) of 0.036 nM.

B8: I25M34 (antibody, V domains shown)
VH: EVQLVESGAEVKKPGASVKVSCKASGYSFSGYTMNWVRQAPGQRLEWMGLINPYNGGTSYNQNFKGRVTLTVDTSASTAYLELNSLRSEDTGVYYCAREDFDSWTYFAMDYWGQGTLVTVS
VL: DIQMTQSPSSLSASVGDRVTITCSASQGINEYLNWYQQKPGKVPKLLIYYTSSLHSGVPSRFSGSGSGTDFTLTISSLQPEDVATYYCQQYINFPYTFGQGTKLEIK
notes: as for B3
With B8, in the assay with human IL-25 [1], the half-maximal inhibitory concentration (IC50) amounted to 0.013 nM. The “Cellular inhibition, fold change” value with human IL-25 [4] is 7 fold change. In addition, the Kd with human IL-25 [2] was determined as 0.064 nM.

B9: I25M20 (antibody, V domains shown)
VH: EVQLVESGAEVKKPGASVKVSCKASGYSFSGYTMNWVRQAPGQRLEWMGLINPYNGGTSYNQNFKGRVTLTVDTSASTAYLELNSLRSEDTGVYYCAREDYDSWTFFAMDYWGQGTLVTVS
VL: DIQMTQSPSSLSASVGDRVTITCSASQGISNYLNWYQQKPGKVPKLLIYYTSSLHSGVPSRFSGSGSGTDFTLTISSLQPEDVATYYCQQYLAFPYTFGQGTKLEIK
notes: as for B3
B9 displayed an IC50 with human IL-25 [1] of 0.013 nM. The “Cellular inhibition, fold change” value in the assay with human IL-25 [4] is 20 fold change. Also, in the assay with human IL-25 [10], the Kd is 0.045 nM.

B10: I25M11 (antibody, V domains shown)
VH: EVQLVESGAEVKKPGASVKVSCKASGYSFSGYTMNWVRQAPGQRLEWMGLINPYNGGTSYNQNFKGRVTLTVDTSASTAYLELNSLRSEDTGVYYCAREDFDSWTFFAMDYWGQGTLVTVS
VL: DIQMTQSPSSLSASVGDRVTITCSASQGIASFLNWYQQKPGKVPKLLIYYTSSLHSGVPSRFSGSGSGTDFTLTISSLQPEDVATYYCQQYSSFPYTFGQGTKLEIK
notes: as for B3
As for B10, the IC50 in the assay with human IL-25 [1] came out at 0.014 nM. In addition, the “Cellular inhibition, fold change” value in the assay with human IL-25 [4] turned out to be 5 fold change. The same molecule yielded a Kd with human IL-25 [2] of 0.057 nM.
